Assay [1] deals with T1, Kap114pΔ(848-875) (S. cerevisiae, UniProt P53067 1-1004, Δ(848-875)).
T1 construct: also called Kap114p(D848-875); source: E. coli (Rosetta strain), purified (GST resin, MonoQ, Superdex 200)
T1 sequence (looked up): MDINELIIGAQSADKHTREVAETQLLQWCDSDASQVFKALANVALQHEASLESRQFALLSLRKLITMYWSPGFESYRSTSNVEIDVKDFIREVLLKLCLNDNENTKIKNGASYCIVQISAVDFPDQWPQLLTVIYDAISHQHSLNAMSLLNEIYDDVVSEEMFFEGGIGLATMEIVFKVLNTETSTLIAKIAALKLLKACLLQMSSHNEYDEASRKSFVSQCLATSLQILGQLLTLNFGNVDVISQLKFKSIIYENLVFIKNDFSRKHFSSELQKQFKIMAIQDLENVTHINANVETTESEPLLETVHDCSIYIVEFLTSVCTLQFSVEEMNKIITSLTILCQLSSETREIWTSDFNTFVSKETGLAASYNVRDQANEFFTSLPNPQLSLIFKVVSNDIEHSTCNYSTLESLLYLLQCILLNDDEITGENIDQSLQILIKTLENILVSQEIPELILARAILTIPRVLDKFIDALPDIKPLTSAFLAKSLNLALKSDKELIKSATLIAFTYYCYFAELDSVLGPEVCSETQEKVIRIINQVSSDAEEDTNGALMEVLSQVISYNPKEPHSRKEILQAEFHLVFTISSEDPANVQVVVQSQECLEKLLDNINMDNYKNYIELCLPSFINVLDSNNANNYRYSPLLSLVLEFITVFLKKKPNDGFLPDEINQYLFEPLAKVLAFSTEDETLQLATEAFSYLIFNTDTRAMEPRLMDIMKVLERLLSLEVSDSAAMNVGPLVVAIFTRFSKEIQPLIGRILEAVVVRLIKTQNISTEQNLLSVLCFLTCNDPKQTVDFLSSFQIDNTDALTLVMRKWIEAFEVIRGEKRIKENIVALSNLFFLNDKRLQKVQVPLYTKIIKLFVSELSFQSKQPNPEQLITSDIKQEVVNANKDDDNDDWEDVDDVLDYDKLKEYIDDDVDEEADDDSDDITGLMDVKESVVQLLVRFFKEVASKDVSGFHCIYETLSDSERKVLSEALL
The experiment in a line: ITC; Kap114p (wild type or mutant) 50 uM in the sample cell, partner 500 uM in the syringe; 25 °C; 20 mM HEPES pH 7.4, 150 mM NaCl; triplicate. Particulars: both partners purified. In general terms: Isothermal titration calorimetry measures the heat released or taken up as one component is titrated into another.

The target in assay [2] is T2, Kap114pΔY933 (S. cerevisiae, UniProt P53067 1-1004, ΔY933).
T2 construct: Kap114p, S. cerevisiae, full length with residue Y933 deleted; also called Kap114p(DY933); source: E. coli (Rosetta strain), purified (GST resin, MonoQ, Superdex 200)
T2 sequence (looked up): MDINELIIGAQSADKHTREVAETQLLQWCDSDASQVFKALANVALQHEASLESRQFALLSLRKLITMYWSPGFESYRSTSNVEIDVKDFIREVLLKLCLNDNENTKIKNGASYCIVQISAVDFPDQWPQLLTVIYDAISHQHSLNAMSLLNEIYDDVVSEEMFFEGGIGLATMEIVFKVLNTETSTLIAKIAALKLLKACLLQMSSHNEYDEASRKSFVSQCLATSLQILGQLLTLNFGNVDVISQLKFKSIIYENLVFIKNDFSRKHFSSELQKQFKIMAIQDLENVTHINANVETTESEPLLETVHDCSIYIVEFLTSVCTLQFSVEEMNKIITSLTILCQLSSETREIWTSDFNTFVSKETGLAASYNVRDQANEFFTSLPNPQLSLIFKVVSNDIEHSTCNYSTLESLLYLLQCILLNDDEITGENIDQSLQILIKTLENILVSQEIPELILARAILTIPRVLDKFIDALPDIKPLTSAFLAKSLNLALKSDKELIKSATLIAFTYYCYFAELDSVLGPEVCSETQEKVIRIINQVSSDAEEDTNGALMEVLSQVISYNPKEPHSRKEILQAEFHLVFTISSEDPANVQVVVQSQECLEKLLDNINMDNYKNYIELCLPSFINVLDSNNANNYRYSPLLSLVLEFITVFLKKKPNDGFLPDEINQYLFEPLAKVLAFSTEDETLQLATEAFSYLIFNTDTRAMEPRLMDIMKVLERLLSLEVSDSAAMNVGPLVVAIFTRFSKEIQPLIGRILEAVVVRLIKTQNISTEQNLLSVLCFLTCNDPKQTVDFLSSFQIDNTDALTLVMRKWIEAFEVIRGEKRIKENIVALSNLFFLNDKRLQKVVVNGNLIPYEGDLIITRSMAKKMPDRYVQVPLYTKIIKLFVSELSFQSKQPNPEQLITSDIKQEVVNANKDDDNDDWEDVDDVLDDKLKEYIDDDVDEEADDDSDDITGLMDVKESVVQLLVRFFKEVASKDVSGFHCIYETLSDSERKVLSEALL
The description is as above. The conditions noted are these: both partners purified.

Values joined by “and” are separate entries in the source; they are usually repeats but may differ in a detail not shown here. Equal entries are not always repeated.

B1: core domain of yTBP (a.a. 61-240) (domain or fragment, S. cerevisiae, UniProt P13393 61-240, looked up)
chain: SGIVPTLQNIVATVTLGCRLDLKTVALHARNAEYNPKRFAAVIMRIREPKTTALIFASGKMVVTGAKSEDDSKLASRKYARIIQKIGFAAKFTDFKIQNIVGSCDVKFPIRLEGLAFSHGTFSSYEPELFPGLIYRMVKPKIVLLIFVSGKIVLTGAKQREEIYQAFEAIYPVLSEFRKM
notes: 61-240; also called yTBP^C; yTBPc; source: E. coli (Rosetta strain), purified (Ni-NTA, HiTrap SP, Superdex 75); not shown: 6xHis, N-terminal, cleaved
In general, Kd refers to the constant that tells how readily two partners part at equilibrium. Read a low Kd as a tighter complex. As for B1, the Ka in assay [1] was 4.16e+08 M⁻¹ and 7.85e+08 M⁻¹ and 6.96e+08 M⁻¹; in assay [2], 1.91e+08 M⁻¹ and 1.5e+08 M⁻¹ and 8.48e+07 M⁻¹. The Kd amounted to 1.7 nM in assay [1] and 7.7 nM in assay [2].

The values above are taken from publication PMC10491584, “Structural convergence endows nuclear transport receptor Kap114p with a transcriptional repressor function toward TATA-binding protein” (Nature Communications, 2023).
